Target: human PD-L1 (human, UniProt Q9NZQ7 19-290)
Assay: FACS

Sequence of human PD-L1 (Q9NZQ7 19-290): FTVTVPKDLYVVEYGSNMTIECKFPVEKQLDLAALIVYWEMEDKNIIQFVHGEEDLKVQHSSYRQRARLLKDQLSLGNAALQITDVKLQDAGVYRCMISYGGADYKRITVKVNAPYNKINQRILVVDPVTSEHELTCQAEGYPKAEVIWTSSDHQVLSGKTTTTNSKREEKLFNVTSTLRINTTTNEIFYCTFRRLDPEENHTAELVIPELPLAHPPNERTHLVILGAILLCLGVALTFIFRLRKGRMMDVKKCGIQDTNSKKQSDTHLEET

EC50: 1.2 nM
B1: PR004268, PD-L1×4-1BB bispecific binding protein with the VH-IgG structure (structure 4) (bispecific antibody)
light: DIQMTQSPSTLSASVGDRVTVTCRASQSIYIWLAWYQQKPGKAPNLLIYKASSLETGVPSRFSGSGSGTEFTLTISSLQPDDFATYYCQQYYGSSRTFGQGTKVEIKRTVAAPSVFIFPPSDEQLKSGTASVVCLLNNFYPREAKVQWKVDNALQSGNSQESVTEQDSKDSTYSLSSTLTLSKADYEKHKVYACEVTHQGLSSPVTKSFNRGEC
heavy: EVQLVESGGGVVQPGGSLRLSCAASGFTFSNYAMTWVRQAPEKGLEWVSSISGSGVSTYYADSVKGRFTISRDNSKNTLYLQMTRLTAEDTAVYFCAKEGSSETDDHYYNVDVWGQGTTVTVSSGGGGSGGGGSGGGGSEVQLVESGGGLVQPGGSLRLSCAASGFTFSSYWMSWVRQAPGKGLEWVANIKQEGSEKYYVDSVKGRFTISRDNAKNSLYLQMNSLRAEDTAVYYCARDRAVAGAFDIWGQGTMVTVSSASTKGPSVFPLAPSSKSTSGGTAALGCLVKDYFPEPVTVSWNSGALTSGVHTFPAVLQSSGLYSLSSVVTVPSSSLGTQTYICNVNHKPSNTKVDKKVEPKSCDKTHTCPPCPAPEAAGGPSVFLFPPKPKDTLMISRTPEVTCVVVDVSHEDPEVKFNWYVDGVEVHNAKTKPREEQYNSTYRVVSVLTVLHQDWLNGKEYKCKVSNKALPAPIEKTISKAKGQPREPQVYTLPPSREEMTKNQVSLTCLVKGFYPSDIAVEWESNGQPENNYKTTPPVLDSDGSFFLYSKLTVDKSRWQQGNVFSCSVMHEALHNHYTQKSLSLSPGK

— patent publication US20230287143A1 (published 2023)
